Consider 38 sequences from the supplement of paper PMC9170038.

For data set [1], the system named is MS2 coat protein. The experiment in a line: apparent KD of MS2 coat protein, switch ON state; designed switch direction (-1 OFF switch, 1 ON switch): 1; higher = weaker reporter binding. The note with it: FMN input: 0 or 200 uM; Eterna round: R93 (includes R88 designs). Put shortly:
(§1)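 The buffer was 100 mM Tris-HCl pH 7.5 with 80 mM KCl and 4 mM MgCl2, used without or with constant ligand. In it, RNA switches transcribed on-chip from Illumina sequencing clusters were titrated with SNAP-549-labelled MS2 coat protein in twofold steps from 0.7 or 1.5 nM to 3 µM. Apparent KD for each design is the median of its normalised cluster binding-curve fits.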

The subject of data set [2] is MS2 coat protein. The experiment in a line: apparent KD of MS2 coat protein, switch OFF state (with FMN for OFF switches, without FMN for ON switches); designed switch direction (-1 OFF switch, 1 ON switch): 1; higher = weaker reporter binding. The note with it: FMN input: 0 or 200 uM; Eterna round: R93 (includes R88 designs). In short, it runs like this:
as §1

Regarding “AAAAAACAUGAGGAUCACCCAUGUGCAAAAUUCGCAGGAUAUUCUUUUUUUAAAUGAGAGGGAGAAGGGUGUAAAA [Nob's Hobby 21 - Jieux - Same State 1]”, the “apparent KD of MS2 coat protein” value in the data set on MS2 coat protein [1] came to 25.5 nM; in the data set with MS2 coat protein [2], 22.4 nM.
On to “AAAAAACAUGAGGAUCACCCAUGUGCAAAAUUCGCAGGAUAUUUCUCAAUUAAAUGAGAGGAAGAAGGGUGACAAA [Nob's Hobby 28 - Jieux - Same State 1]”, for which the “apparent KD of MS2 coat protein” value in the data set on MS2 coat protein [1] was 95.9 nM; in the data set with MS2 coat protein [2] it was 55.3 nM.
In the case of “AAAAACAUGGUGUAGGAUAUAUUAAUAGUCACAUGAGGAUCACCCAUGUUCAUAUAUAUGAACGAGUAGAAGGACGAUGAAAAAA [Mat - Same state - Malcolm Mod - D108]”, the “apparent KD of MS2 coat protein” value in the data set on MS2 coat protein [1] was 244 nM; in the data set on MS2 coat protein [2], 237 nM.
“AAAAAGUGAUGGUAGGAUAUUGGAAAAGCCACAUGAGGAUCACCCAUGUCAAAAAACCUAAAAAACAAGAAGGGCUGUUAUAAAAA [Same State 2.2]”: the results for the “apparent KD of MS2 coat protein” value in the data set on MS2 coat protein [1] and with MS2 coat protein [2] were 18.6 nM and 24.7 nM, respectively.
As for “AAAACACAUGAGGAUCACCCAUGUGCAAAAUUCGCAGGAUAUUUCUCAAUUAAAUGAAAGGAAGAAGGGUGAUAAA [Nob's Hobby 34 - Jieux - Same State 1]”, the figures for the “apparent KD of MS2 coat protein” value with MS2 coat protein [1] and with MS2 coat protein [2] were 19.4 nM and 29.4 nM, respectively.
For the sequence “AAAACCUGCGUCGAGGAUAUGUAGCCCACUACAUGAGGAUCACCCAUGUGGAUCUUACUGGGUCGACAGAAGGUGAAAGUUAGGC [Onlele]”, the “apparent KD of MS2 coat protein” value with MS2 coat protein [1] was determined as 36.3 nM; in the data set on MS2 coat protein [2], 34.7 nM.
Taken in the same sequence, the figures for “AAAAGACAUGAGGAUCACCCAUGUAAAAACAUAGGAGGAUAUGUCAUGAAAAAAGACUUGACAGAAGGCCUUUGUC [SS1 - 49]” were 42 nM and 69.8 nM.
Turning to “AAAAGACAUGAGGAUCACCCAUGUCAAGACAUAGGAGGAUAUGUCUUGAAAAAAGACUUGACAGAAGGCCUUUGUC [SS1 - 58]”, the “apparent KD of MS2 coat protein” value with MS2 coat protein [1] was found to be 16.5 nM; in the data set with MS2 coat protein [2], 21.1 nM.
As to “AAAAGACAUGAGGAUCACCCAUGUCCUCGGACAUGAGGAUAUGUACAGACUUCGGUCUGUACAGAAGGCAUGUAAA [SS1 - 1070]”, the “apparent KD of MS2 coat protein” value in the data set on MS2 coat protein [1] was 47.3 nM; with MS2 coat protein [2], 232 nM.
In the case of “AAAAGACAUGAGGAUCACCCAUGUGAAAACAUACAAGGAUAUGUGUGGAAACCGUACUAUACAGAAGGUGUAUGUC [SS1 - 85]”, the entries for the “apparent KD of MS2 coat protein” value in the data set on MS2 coat protein [1] and in the data set on MS2 coat protein [2] were 19.7 nM and 28.5 nM, respectively.
Take “AAAAGACAUGAGGAUCACCCAUGUGAAAACGUGCGAGGAUAUGUAUGGAAACCAUACUGUACAGAAGGCGCGUGUC [SS1 - 83]”: the “apparent KD of MS2 coat protein” value was 24.4 nM in the data set on MS2 coat protein [1] and 32.3 nM in the data set with MS2 coat protein [2].
For the sequence “AAAAGACAUGAGGAUCACCCAUGUUAAGACGUGGGAGGAUAUGCAUGGAAAACAUGCUGUGCAGAAGGCCCGUGUC [SS1 - 23]”, the “apparent KD of MS2 coat protein” value is 19.8 nM in the data set with MS2 coat protein [1] and 78.6 nM with MS2 coat protein [2].
Turning to “AAAAUAAAAAGGUAGGAUAUGGGUAAACCUACAUGAGGAUCACCCAUGUAAUAAAAAGAAAAAAACCAGAAGGACCAAAAUAAAA [72%, More Wateronthemoon, 9]”, the “apparent KD of MS2 coat protein” value was 12.8 nM with MS2 coat protein [1] and 55.2 nM with MS2 coat protein [2].
As for “AAAAUAAAAUAAAAGGAUAUAAAAAUAUAUACAUGAGGAUCACCCAUGUAUAUAAAAAUAAAAUAAAAGAAGGAAUAAAAAUAAA [SS2 507: MS2 7]”, the “apparent KD of MS2 coat protein” value with MS2 coat protein [1] was determined as 22.7 nM; in the data set with MS2 coat protein [2], 18.9 nM.
As for “AAAAUACAUGAGGAUCACCCAUGUCCGACAAAUCAAGGAUAUGAUAGCCUAACCAGGCUGUUAGAAGGUGAAAGAA [Laarera]”, the “apparent KD of MS2 coat protein” value in the data set with MS2 coat protein [1] is 637 nM; in the data set with MS2 coat protein [2], 51.1 nM.
With “AAACCACAUGAGGAUCACCCAUGUAAAAAAUAUGGAGGAUAUACUAGAAGAAACAAAAUAGUAGAAGGCCAAAAAA [75%, Ex sub1, 29]”, the entries for the “apparent KD of MS2 coat protein” value in the data set with MS2 coat protein [1] and in the data set with MS2 coat protein [2] were 20.3 nM and 24.6 nM, respectively.
Consider “AAACCACAUGAGGAUCACCCAUGUAAAAAUAUGGAAGGAUAUGCGAAAAGAAACAAAGAAGCAGAAGGUCUAAAAA [75%, Ex sub1, 20]”, for which the figures for the “apparent KD of MS2 coat protein” value with MS2 coat protein [1] and in the data set with MS2 coat protein [2] were 15.2 nM and 27.7 nM, respectively.
As for “AAACCACAUGAGGAUCACCCAUGUAAAAAUAUGGGAGGAUAUACUAGAAGAAACAAAAUAGUAGAAGGCCUAAAAA [75%, Ex sub1, 28]”, the entries for the “apparent KD of MS2 coat protein” value in the data set on MS2 coat protein [1] and with MS2 coat protein [2] were 33.6 nM and 78.1 nM, respectively.
“AAAGAAAAACUAGAGGAUAUCUGAAUGGUAACAUGAGGAUCACCCAUGUGAAGAAAGGAACAUGAGGAGAAGGCUAGAAGAAAAA [JL Nando mod 17]”: the “apparent KD of MS2 coat protein” value in the data set on MS2 coat protein [1] turned out to be 11.4 nM; with MS2 coat protein [2], 35.4 nM.
For “AAAUAAAGGAUUAAGGAUAUAUCACAUGAAACAUGAGGAUCACCCAUGUAAUAAUAUAAAGGGUGAUAGAAGGUAGUUUAUAAAUA [High Roller2]” the same measures were 295 nM and 242 nM.
For the sequence “AAAUAAAUGACUAAGGAUAUAUCGAAGAAGACAUGAGGAUCACCCAUGUGAUAAUAAAAAGGGUGGUAGAAGGUAGUCAACAAAC [Mod 5 of Pariah 4 by Hyphema in Round 1]”, the results for the “apparent KD of MS2 coat protein” value with MS2 coat protein [1] and in the data set on MS2 coat protein [2] were 65.4 nM and 116 nM, respectively.
Regarding “AAAUAAAUGACUAAGGAUAUCUCAGAGAAAACAUGAGGAUCACCCAUGUAAUAAUAACAUGAGUGAGAGAAGGUAGUCAACAAAC [Same State 2.3 (Pariah 4 -changed stack on 9nt hairpin)]”, the “apparent KD of MS2 coat protein” value with MS2 coat protein [1] was 24.3 nM; with MS2 coat protein [2], 57.5 nM.
With “AAAUAACAUGAGGAUCACCCAUGUUGCAACGGUACAGGAUAUGUGGGUGAAAAUAGCAUGGCAGAAGGGUAGUGUA [SameState1 Malc#29]”, the figures for the “apparent KD of MS2 coat protein” value with MS2 coat protein [1] and with MS2 coat protein [2] were 130 nM and 67.8 nM, respectively.
Regarding “AACAAUCUAUCUGAGGAUAUAUGUCAAAAGACAUGAGGAUCACCCAUGUAAAAACAUGAAAAAUCAUAGAAGGCAGAUAGAUUGA [SS2: 1135]”, the results for the “apparent KD of MS2 coat protein” value in the data set on MS2 coat protein [1] and in the data set on MS2 coat protein [2] were 67.3 nM and 88.3 nM, respectively.
With “AACAAUCUAUCUGAGGAUAUAUGUCAAAAGACAUGAGGAUCACCCAUGUAAAAACAUGAAAAGACAUAGAAGGCAGAUAGAUUGA [SS2: 1133]”, the “apparent KD of MS2 coat protein” value came to 25.4 nM in the data set with MS2 coat protein [1] and 35.1 nM with MS2 coat protein [2].
For “AACAAUCUAUCUGAGGAUAUCAUAAAAAAGACAUGAGGAUCACCCAUGUAGCAGGAAACUGCAUAUGAGAAGGCAGAUAGAUUGA [SS2: 1122]” the same measures were 29.6 nM and 18.1 nM.
Take “AACAAUCUAUCUGAGGAUAUCAUGUAAAAGACAUGAGGAUCACCCAUGUAGCAGGAAACUGCAUAUGAGAAGGCAGAUAGAUUGA [SS2: 1120]”: the entries for the “apparent KD of MS2 coat protein” value in the data set on MS2 coat protein [1] and in the data set on MS2 coat protein [2] were 18.4 nM and 21.3 nM, respectively.
As for “AACAAUCUAUCUGAGGAUAUGUGUCAAAAGACAUGAGGAUCACCCAUGUAAAAACAUGGAAAAACACAGAAGGCAGAUAGAUUGA [SS2: 1149]”, the figures for the “apparent KD of MS2 coat protein” value in the data set on MS2 coat protein [1] and in the data set with MS2 coat protein [2] were 62.1 nM and 75.4 nM, respectively.
With “AACAAUCUAUCUGAGGAUAUGUGUCGAAAGACAUGAGGAUCACCCAUGUAAAAACAUGGGAAGAUACAGAAGGCAGAUAGAUUGA [SS2: 1161]”, the results for the “apparent KD of MS2 coat protein” value with MS2 coat protein [1] and in the data set with MS2 coat protein [2] were 203 nM and 29.3 nM, respectively.
For “AACAAUCUAUCUGAGGAUAUGUGUCGAAAGACAUGAGGAUCACCCAUGUGAAAACAUGAAAAGAUACAGAAGGCAGAUAGAUUGA [SS2: 1155]”, the “apparent KD of MS2 coat protein” value worked out at 26.6 nM with MS2 coat protein [1] and 35.9 nM in the data set with MS2 coat protein [2].
On to “AAGAAACAUGAGGAUCACCCAUGUAAACUCGAGAGAGGAUAUGGUACAUGGAAGAUCCAACUAGAAGGCUCUGGAG”, for which the results for the “apparent KD of MS2 coat protein” value with MS2 coat protein [1] and in the data set with MS2 coat protein [2] were 38.6 nM and 17.6 nM, respectively.
Take “AAGAAACAUGAGGAUCACCCAUGUACCCAAAACGGAGGAUAUGGGAAAGAAAGAAAGAAACCAGAAGGCCGAUGAA [Amyrtaeus]”: the “apparent KD of MS2 coat protein” value came to 25.9 nM with MS2 coat protein [1] and 88.8 nM with MS2 coat protein [2].
Take “AAGAAACAUGAGGAUCACCCAUGUACCCAAAAGGGAGGAUAUGGAAAAGAAAGAAAGAAACCAGAAGGCCCAUGAA [Artabanus the Hyrcanian]”: the “apparent KD of MS2 coat protein” value in the data set with MS2 coat protein [1] amounted to 10.8 nM; in the data set on MS2 coat protein [2], 22.2 nM.
For the sequence “AAGAAACAUGAGGAUCACCCAUGUAGAAAUAUGGGAGGAUAUACGAAGACGAAAGUCAAAGUAGAAGGCCUAAAAG [Mat - Same State 1 - Eli mod - D107]”, the “apparent KD of MS2 coat protein” value in the data set with MS2 coat protein [1] was 21 nM; in the data set with MS2 coat protein [2], 68.7 nM.
With “AAGAAACAUGAGGAUCACCCAUGUGAAAUAAACACAGGAUAUGCGAAAAGAAACAAAGAAGCAGAAGGGUGAAGAA [Mat - Same State 1 - Tesla mod - 57]”, the “apparent KD of MS2 coat protein” value with MS2 coat protein [1] is 15.1 nM; in the data set on MS2 coat protein [2] it was 44.1 nM.
For “AAGAAACAUGAGGAUCACCCAUGUGAGAUAAACACAGGAUAUGCAAAAGAAAGAAAGAAAGCAGAAGGGUGAAGAA [Mat - Same State 1 - Tesla mod - 51]” the same measures were 21.6 nM and 129 nM.
For “AAGAAACAUGAGGAUCACCCAUGUGAGAUAAACACAGGAUAUGCGAAAAGAAAUAAAGAAGCAGAAGGGUGAAGAA [Mat - Same State 1 - Tesla mod - 71]” the same measures were 20.5 nM and 94.1 nM.
For “AAGAAAGAAACAUAGGAUAUCAAGAAUAUAACAUGAGGAUCACCCAUGUAAAUACGAAAGUAUAAUGAGAAGGAUGGAUGAUCUUC [Mat - Mod of Meechl]”, the “apparent KD of MS2 coat protein” value came out at 24.3 nM in the data set with MS2 coat protein [1] and 34.5 nM in the data set on MS2 coat protein [2].
